Here are results for 2 molecules from US5128450A, “Nonglycosylated human interleukin-3 analog proteins” (priority 1989, dated 1992).

For one data set, the system named is human bone marrow cells. The data set can be described thus: Human bone marrow proliferation assay. The format is cell-based. How it is done: Freshly isolated human bone marrow cells are preincubated for 2 hours at 37° C., 5% CO2, in tissue culture flasks containing 2×10^6 cells per mi prewarmed, pregassed serum-free RPMI1640 medium (Gibco, Chagrin Falls, OH, USA) containing 50 units/ml penicillin, 50 μg/ml streptomycin, and 300 μg/ml fresh L-glutamine (hereinafter "assay medium"). After preincubation, nonadherent cells are removed by pipetting the media gently over the surface of the flask. Nonadherent cells are collected by centrifugation at 1000 rpm for 10 minutes at 4° C., resuspended in a small volume of assay medium containing 10% fetal bovine serum (FBS), and counted using Trypan blue for viability and Turks stain for recovery of white cells. Cells are kept at about 4° C. in assay medium containing 10% FBS until added to assay plates.
50 μl assay medium are added to each well of a 96 well flat bottom tissue culture plate. 50 μl of sample diluted in assay medium are added to the first well of each row, and serial dilutions are made across each row in the usual manner. […] After incubation, cells are harvested onto glass fiber filters, washed, and tested for incorporated radioactivity using a scintillation counter. Units of huIL-3 activity are calculated by reference to the quantity of huIL-3 which induces 50% of maximal thymidine incorporation. […]

The subject of the next data set is rhesus monkeys. To be noted: cited from earlier work.

B1: Met^3 rhuIL-3 (Pro^8 Asp^15 Asp^70): truncated, non-glycosylated IL-3 analog having an N-terminus at Met^3, expressed from pIXY290 (protein, UniProt P08700 20-152, looked up, variant del1-2 N15D N70D)
Interleukin-3: MTQTTPLKTSWVDCSNMIDEIITHLKQPPLPLLDFNNLNGEDQDILMENNLRRPNLEAFNRAVKSLQDASAIESILKNLLPCLPLATAAPTRHPIHIKDGDWNEFRRKLTFYLKTLENAQAQQTTLSLAIF
For B1, the “biological activity compared with production lots of Example 2” value with human bone marrow cells is on record as “comparable in biological activity to the rhuIL-3 production lots”.

B2: huIL-3 (Ser^8): composition of huIL-3 (Ser^8) produced in E. coli, reported by Valent et al. (protein, UniProt P08700 20-152, looked up, variant P8S)
Interleukin-3: APMTQTTSLKTSWVNCSNMIDEIITHLKQPPLPLLDFNNLNGEDQDILMENNLRRPNLEAFNRAVKSLQNASAIESILKNLLPCLPLATAAPTRHPIHIKDGDWNEFRRKLTFYLKTLENAQAQQTTLSLAIF
Take B2: in the data set on rhesus monkeys (after IL-3 treatment until day 8-10), the “intracellular histamine (IH) in WBC” value was “rise continuously”. For the same molecule, in the data set with rhesus monkeys (by day 14, 11, 33, 100 μg/kg/day s.c. thrice daily), the “white blood cell (WBC) increase” value is listed as 2-3 fold. In the data set with rhesus monkeys (rhesus monkey, in vivo), the plasma histamine entry was “rise in plasma histamine values”; the “skin side effects (skin biopsy)” value was “urticaria-like exanthem revealing infiltration of mast cells and lymphocytes into the dermis”.
